{
  "source": "paper PMC9371665",
  "molecular_target": "TnsB transposase of the type V-K CAST element from Scytonema hofmanni (ShCAST), full length (Scytonema hofmanni)",
  "assay": "cryo-EM structure; TnsB strand-transfer complex: strand-transfer DNA and purified TnsB mixed 1:6, 26 mM Hepes pH 7.5, 5 mM Tris-HCl pH 7.5, 20 mM KCl, 100 mM NaCl, 0.2 mM MgCl2, 15 mM MgOAc2, 37 °C 40 min, then size-exclusion chromatography; C2 symmetry imposed; 3.7 Å",
  "data": [
    {"substance": "TnsB transposase of the type V-K CAST element from Scytonema hofmanni (ShCAST), full length (enzyme)", "values": [
      {"measurement": "stoichiometry N", "value": 4}
    ]}
  ]
}
